From US20200247855A1 (published 2020)
Numbering of substitutions follows the chain as printed. Names may count otherwise. Where two headings read alike, the source gives them in different places.

B1: P1142_AMBCA (other)
chain: KPQILQRTDHSTDSDWDPQMCPETCNPSKNISCSSECLCVTLGGGDETGTCFNMSGVDWLGHAQASDGHNDG
B2: P991:G4S:P1156 (designed binder)
chain: ENGEGTTQPDYDNSTDYYNYEDFKCTCPAPHLNNTNGTVMKPIGCYYTCNVTRCTAPDTYPCYNLTEHQAKNLTTSPTTLCAVGNCDHGICVPNGTKELCFKAPNLEEGGGGSADDDNELFTVQYCGMNCTKDEGGTWTGCTGKKEGCKCYHESGKNYGLCLSTEYTDFSQYGNPSDSEIEAAKPKRSDTLSH
B3: P1126_AMBCA (other)
chain: KPQILQRTDKSTDSEWDPQTCPETCIPSKNITCSDGCVCVKLGEEEEGTCFNMTGVDWLGSPSDD
B4: P1243_AMBAM (other)
chain: RNHTEDNSTEYYDYEEARCACPARHLNNTNGTVLKLLGCHYFCNGTLCTAPDGYPCYNLTAQQVRTLTTYPNTSCAVGVCMKGTCVKNGTMEQCFKTP
B5: P1156:G4S:P991 (designed binder)
chain: ADDDNELFTVQYCGMNCTKDEGGTWTGCTGKKEGCKCYHESGKNYGLCLSTEYTDFSQYGNPSDSEIEAAKPKRSDTLSHGGGGSENGEGTTQPDYDNSTDYYNYEDFKCTCPAPHLNNTNGTVMKPIGCYYTCNVTRCTAPDTYPCYNLTEHQAKNLTTSPTTLCAVGNCDHGICVPNGTKELCFKAPNLEE

Columns and labels:
Assay in all cases: BLI
CXCL5 [1] = biological target: CXCL5
CXCL2 [2] = biological target: CXCL2
CXCL6 = biological target: CXCL6
CXCL4 = biological target: CXCL4
CXCL10_HUMAN = CXCL10_HUMAN (human, UniProt P02778 22-98)
CXCL11_HUMAN = biological target: T1, CXCL11_HUMAN (human, UniProt O14625 22-94)
T1 chain: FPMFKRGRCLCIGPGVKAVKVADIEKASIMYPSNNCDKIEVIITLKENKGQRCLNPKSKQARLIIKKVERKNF

CXCL7_HUMAN = biological target: T2, CXCL7_HUMAN (human, UniProt P02775 59-128)
T2 chain: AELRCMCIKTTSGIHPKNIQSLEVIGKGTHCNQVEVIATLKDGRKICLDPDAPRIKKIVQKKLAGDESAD

CXCL1_HUMAN [3] = biological target: T3, CXCL1_HUMAN (human, UniProt P09341 35-107)
CXCL3_HUMAN [4] = biological target: T4, CXCL3_HUMAN (human, UniProt P19876 35-107)
CXCL8_HUMAN = CXCL8_HUMAN (human, UniProt P10145 28-99)
CXCL1_HUMAN [5] = biological target: T3, CXCL1_HUMAN; remark: listed apart in the source
CXCL3_HUMAN [6] = biological target: T4, CXCL3_HUMAN; remark: listed apart in the source
CCL18_HUMAN = biological target: T5, CCL18_HUMAN (human, UniProt P55774 21-89)
T5 chain: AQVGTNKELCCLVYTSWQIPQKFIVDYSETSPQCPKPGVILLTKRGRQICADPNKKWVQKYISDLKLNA

CCL21_HUMAN = biological target: T6, CCL21_HUMAN (human, UniProt O00585 24-134)
T6 chain: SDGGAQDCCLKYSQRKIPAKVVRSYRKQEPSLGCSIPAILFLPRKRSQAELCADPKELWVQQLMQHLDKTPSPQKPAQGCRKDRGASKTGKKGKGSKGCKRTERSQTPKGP

CCL1_HUMAN = biological target: T7, CCL1_HUMAN (human, UniProt P22362 24-96)
T7 chain: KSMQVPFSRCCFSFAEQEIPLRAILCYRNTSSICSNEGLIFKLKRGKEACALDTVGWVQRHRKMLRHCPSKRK

CCL23_HUMAN = biological target: T8, CCL23_HUMAN (human, UniProt P55773 22-120)
T8 chain: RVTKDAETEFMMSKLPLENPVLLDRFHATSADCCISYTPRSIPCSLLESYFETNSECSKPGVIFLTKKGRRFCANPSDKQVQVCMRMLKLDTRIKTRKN

CCL2_HUMAN = CCL2_HUMAN (human, UniProt P13500 24-99)
CCL11_HUMAN [7] = biological target: T9, CCL11_HUMAN (human, UniProt P51671 24-97)
CCL16_HUMAN = biological target: T10, CCL16_HUMAN (human, UniProt O15467 24-120)
T10 chain: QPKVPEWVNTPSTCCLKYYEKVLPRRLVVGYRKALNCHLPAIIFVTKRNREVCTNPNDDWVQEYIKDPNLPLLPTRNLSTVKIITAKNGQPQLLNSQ

CCL3_HUMAN = biological target: T11, CCL3_HUMAN (human, UniProt P10147 24-92)
T11 chain: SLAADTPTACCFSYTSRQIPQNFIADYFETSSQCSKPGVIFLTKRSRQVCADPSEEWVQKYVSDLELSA

CCL14_HUMAN [8] = biological target: T12, CCL14_HUMAN (human, UniProt Q16627 22-93)
T12 chain: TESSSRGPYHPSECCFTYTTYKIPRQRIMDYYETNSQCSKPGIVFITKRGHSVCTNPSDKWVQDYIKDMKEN

CCL22_HUMAN = biological target: T13, CCL22_HUMAN (human, UniProt O00626 25-93)
T13 chain: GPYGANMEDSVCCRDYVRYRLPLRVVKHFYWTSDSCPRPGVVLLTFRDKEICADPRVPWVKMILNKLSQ

CCL24_HUMAN = biological target: T14, CCL24_HUMAN (human, UniProt O00175 27-104)
T14 chain: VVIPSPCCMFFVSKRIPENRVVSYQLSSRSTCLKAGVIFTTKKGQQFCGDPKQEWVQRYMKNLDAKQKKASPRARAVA

CCL15_HUMAN = biological target: T15, CCL15_HUMAN (human, UniProt Q16663 22-113)
T15 chain: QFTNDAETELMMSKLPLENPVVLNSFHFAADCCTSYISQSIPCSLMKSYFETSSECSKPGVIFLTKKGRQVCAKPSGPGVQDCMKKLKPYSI

CCL3L1_HUMAN = biological target: T16, CCL3L1_HUMAN (human, UniProt P16619 24-93)
T16 chain: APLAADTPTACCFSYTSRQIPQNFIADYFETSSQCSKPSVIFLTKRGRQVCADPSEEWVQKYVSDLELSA

CCL13_HUMAN [9] = biological target: T17, CCL13_HUMAN (human, UniProt Q99616 24-98)
CCL27_HUMAN = biological target: T18, CCL27_HUMAN (human, UniProt Q9Y4X3 25-112)
T18 chain: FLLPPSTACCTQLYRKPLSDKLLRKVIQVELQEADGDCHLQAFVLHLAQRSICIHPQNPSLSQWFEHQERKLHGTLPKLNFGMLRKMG

CCL17_HUMAN = biological target: T19, CCL17_HUMAN (human, UniProt Q92583 24-94)
T19 chain: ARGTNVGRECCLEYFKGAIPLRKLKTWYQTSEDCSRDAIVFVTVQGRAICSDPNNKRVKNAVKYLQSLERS

CCL7_HUMAN = CCL7_HUMAN (human, UniProt P80098 24-99)
CCL5_HUMAN = biological target: T20, CCL5_HUMAN (human, UniProt P13501 24-91)
T20 chain: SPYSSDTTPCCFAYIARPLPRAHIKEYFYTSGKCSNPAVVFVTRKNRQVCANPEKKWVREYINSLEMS

CCL8_HUMAN [10] = biological target: T21, CCL8_HUMAN (human, UniProt P80075 24-99)
T21 chain: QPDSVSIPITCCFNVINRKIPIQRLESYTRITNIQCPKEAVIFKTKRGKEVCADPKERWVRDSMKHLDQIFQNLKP

CCL4_HUMAN = biological target: T22, CCL4_HUMAN (human, UniProt P13236 24-92)
T22 chain: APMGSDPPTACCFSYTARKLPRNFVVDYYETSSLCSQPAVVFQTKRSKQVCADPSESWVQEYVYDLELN

CCL4L1_HUMAN = biological target: T23, CCL4L1_HUMAN (human, UniProt Q8NHW4 24-92)
T23 chain: T22 chain with S47G

CXCL5 [11] = biological target: CXCL5; remark: listed apart in the source
CXCL2 [12] = biological target: CXCL2; remark: listed apart in the source
CCL11_HUMAN [13] = biological target: T9, CCL11_HUMAN; remark: listed apart in the source
CCL14_HUMAN [14] = biological target: T12, CCL14_HUMAN
CCL13_HUMAN [15] = biological target: T17, CCL13_HUMAN; remark: listed apart in the source
CCL8_HUMAN [16] = biological target: T21, CCL8_HUMAN

T17 sequence (Q99616 24-98): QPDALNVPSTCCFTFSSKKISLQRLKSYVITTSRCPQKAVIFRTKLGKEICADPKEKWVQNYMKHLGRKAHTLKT
T4 sequence (P19876 35-107): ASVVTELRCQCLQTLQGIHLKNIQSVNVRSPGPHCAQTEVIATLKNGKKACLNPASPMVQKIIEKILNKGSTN
T9 sequence (P51671 24-97): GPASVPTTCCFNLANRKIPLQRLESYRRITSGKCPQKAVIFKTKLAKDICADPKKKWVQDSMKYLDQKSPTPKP
T3 sequence (P09341 35-107): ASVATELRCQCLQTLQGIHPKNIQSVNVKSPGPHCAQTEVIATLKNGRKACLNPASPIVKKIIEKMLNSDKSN
Chain of CCL7_HUMAN (P80098 24-99): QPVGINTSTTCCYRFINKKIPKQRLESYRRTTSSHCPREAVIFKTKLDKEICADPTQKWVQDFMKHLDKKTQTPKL
Chain of CXCL10_HUMAN (P02778 22-98): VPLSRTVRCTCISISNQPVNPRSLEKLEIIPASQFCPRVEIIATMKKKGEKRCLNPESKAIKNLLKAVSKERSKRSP
Chain of CCL2_HUMAN (P13500 24-99): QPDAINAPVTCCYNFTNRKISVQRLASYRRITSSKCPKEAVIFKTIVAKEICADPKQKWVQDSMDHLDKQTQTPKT
Chain of CXCL8_HUMAN (P10145 28-99): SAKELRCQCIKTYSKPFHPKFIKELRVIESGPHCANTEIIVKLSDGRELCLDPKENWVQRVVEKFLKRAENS

Row | Binder | Kd (CXCL5 [1]) [nM] | Kd (CXCL2 [2]) [nM] | Kd (CXCL6) [nM] | Kd (CXCL4) [nM] | Kd (CXCL10_HUMAN) [nM] | Kd (CXCL11_HUMAN) [nM] | Kd (CXCL7_HUMAN) [nM] | Kd (CXCL1_HUMAN [3]) [nM] | Kd (CXCL3_HUMAN [4]) [nM] | Kd (CXCL8_HUMAN) [nM] | Kd (CXCL1_HUMAN [5]) [nM] | Kd (CXCL3_HUMAN [6]) [nM] | Kd (CCL18_HUMAN) [nM] | Kd (CCL21_HUMAN) [nM] | Kd (CCL1_HUMAN) [nM] | Kd (CCL23_HUMAN) [nM] | Kd (CCL2_HUMAN) [nM] | Kd (CCL11_HUMAN [7]) [nM] | Kd (CCL16_HUMAN) [nM] | Kd (CCL3_HUMAN) [nM] | also measured
1 | B1 | 9.81 | 2.14 | 6.27 | 381 | 7.46 | 322 | 1.83 | 4.61 | 5.65 | – | – | – | – | – | – | – | – | – | – | – | –
2 | B2 | – | – | – | – | – | – | – | – | – | 3.56 | 5.08 | 89.9 | 0.143 | 18.2 | 7.66 | 5.13 | 24.8 | 1.39 | 0.636 | 2.22 | Kd (CCL14_HUMAN [8]): 0.835 nM; Kd (CCL22_HUMAN): 2.36 nM; Kd (CCL24_HUMAN): 3.18 nM; Kd (CCL15_HUMAN): 127 nM; Kd (CCL3L1_HUMAN): 2.91 nM; Kd (CCL13_HUMAN [9]): 0.176 nM; Kd (CCL27_HUMAN): 42.6 nM; Kd (CCL17_HUMAN): 5.8 nM; Kd (CCL7_HUMAN): 0.287 nM; Kd (CCL5_HUMAN): 0.947 nM; Kd (CCL8_HUMAN [10]): 7.89 nM; Kd (CCL4_HUMAN): 3.54 nM; Kd (CCL4L1_HUMAN): 1.24 nM; Kd (CXCL5 [11]): 52.7 nM; Kd (CXCL2 [12]): 48.9 nM
3 | B3 | 12.1 | 5.11 | 9.12 | 393 | 7.9 | 394 | 6.05 | 10.5 | 13.3 | – | – | – | – | – | – | – | – | – | – | – | –
4 | B4 | – | – | – | – | – | – | – | – | – | – | – | – | – | – | – | – | – | – | – | – | Kd (CCL11_HUMAN [13]): 36.8 nM; Kd (CCL14_HUMAN [14]): 6.43 nM; Kd (CCL13_HUMAN [15]): 1.64 nM; Kd (CCL8_HUMAN [16]): 193 nM
5 | B5 | – | – | – | – | – | – | – | – | – | 1.5 | 2.72 | 61.4 | 0.201 | 19.9 | 16.6 | 7 | 32.1 | 1.54 | 0.503 | 1.89 | Kd (CCL14_HUMAN [8]): 0.664 nM; Kd (CCL22_HUMAN): 2.18 nM; Kd (CCL24_HUMAN): 3.58 nM; Kd (CCL15_HUMAN): 166 nM; Kd (CCL3L1_HUMAN): 3.09 nM; Kd (CCL13_HUMAN [9]): 0.207 nM; Kd (CCL27_HUMAN): 36.2 nM; Kd (CCL17_HUMAN): 7.44 nM; Kd (CCL7_HUMAN): 0.435 nM; Kd (CCL5_HUMAN): 0.754 nM; Kd (CCL8_HUMAN [10]): 7.45 nM; Kd (CCL4_HUMAN): 3.55 nM; Kd (CCL4L1_HUMAN): 1.28 nM; Kd (CXCL5 [11]): 22.7 nM; Kd (CXCL2 [12]): 25.2 nM
